Measured values as given in the supplement of paper PMC9732359.
± gives the uncertainty stated by the source.

Assay: protein stability index of a GFP-peptide fusion (yeast GPS) (PSI 1-4); higher = more stable; sorted into four equal gates, so the index is relative within each strain
In short: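 Tiled 17-residue peptides from yeast proteins were fused downstream of GFP on a plasmid that also expresses Cherry, and the pooled library was carried in yeast. Mid-log cultures grown in leucine-free medium were sorted into four equal gates by GFP/Cherry fluorescence ratio. Plasmids from each gate were PCR-amplified and Illumina-sequenced, and reads were assigned to strains by barcodes. Each peptide's protein stability index is the sum, over gates, of the gate's read frequency multiplied by its gate number.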

Sequence	protein stability index (doa10∆)	protein stability index (pdr5∆)	protein stability index (san1∆)	protein stability index (ubr1∆)
RGRNDTLERVHLSYCSN [GRR1]	3.01 ± 0.055	3.2 ± 0.068	2.69 ± 0.1	2.98 ± 0.046
VPVTKLGRLVKAGKITT [RPS2]	3.13 ± 0.091	3 ± 0.15	3.03 ± 0.11	3.45 ± 0.078
VILGDANSSTIRVTNSF [RPN8]	3.01 ± 0.092	2.94 ± 0.072	2.89 ± 0.066	3.06 ± 0.052
WAVISAFFREKGLVSQQ [RPB2]	3.38 ± 0.14	3.46 ± 0.1	3.29 ± 0.078	3.14 ± 0.078
PWDTSLEVGRRFSPDED [MCD1]	3.25 ± 0.14	3.44 ± 0.19	3.28 ± 0.15	3.41 ± 0.17
TSASQPFKFGKTSEKSE [YOR098C/NUP1]	3.1 ± 0.14	3.22 ± 0.15	2.96 ± 0.13	3.17 ± 0.093
EPKLFRMRIFASNEVIA [RPL20A]	2.19 ± 0.087	1.97 ± 0.054	1.82 ± 0.06	2.28 ± 0.036
SPRVEKRSFSSTLKSFF [YOR098C/NUP1]	1.55 ± 0.067	2 ± 0.046	2.26 ± 0.078	1.92 ± 0.043
SSIDKIEDRDFLVRYAC [SIR3]	2.9 ± 0.17	–	–	3.02 ± 0.21
DRVFNVPTIGVVNSNFA [YJR042W/NUP85]	2.57 ± 0.08	2.7 ± 0.085	2.48 ± 0.086	2.5 ± 0.036
NKSLKYVIHGIELLSDL [LIN1]	2.81 ± 0.093	2.94 ± 0.096	2.92 ± 0.075	2.87 ± 0.067
FVTRKSRKRAKKMTKKA [PRP8]	3.02 ± 0.075	2.91 ± 0.12	2.61 ± 0.11	2.95 ± 0.12
IIKANQLILSDVDPEFY [RET1]	1.51 ± 0.094	1.76 ± 0.081	1.6 ± 0.11	1.96 ± 0.081
PINGNEAESQWYIEKVI [CSI1]	2.47 ± 0.081	2.88 ± 0.078	3.09 ± 0.1	2.93 ± 0.18
TSQKMTSTVNRLNTVTR [MCD1]	3.16 ± 0.094	2.94 ± 0.18	3.57 ± 0.18	3.09 ± 0.098
YIWRYLPAPPVCIRPSV [RPO31]	1.48 ± 0.14	1.27 ± 0.1	–	1.2 ± 0.23
SSSAQQTKSNGTAGGNT [YJL041W/NSP1]	3.32 ± 0.12	3.46 ± 0.16	3.36 ± 0.078	3.28 ± 0.085
LEVVQYIEDGRNPDIYT [NUT2]	3.14 ± 0.059	3.25 ± 0.049	3.15 ± 0.042	3.27 ± 0.039
VKRLLFTIRGFKQKLNE [MTW1]	3.04 ± 0.058	2.76 ± 0.048	2.86 ± 0.044	3.14 ± 0.043
PQQSRYISFIKDDRFVP [RPN2]	2.67 ± 0.055	2.87 ± 0.036	2.98 ± 0.044	3.11 ± 0.035

Sequence	protein stability index (doa10∆)	protein stability index (pdr5∆)	protein stability index (san1∆)	protein stability index (ubr1∆)
KVVLKALFLSKINRPPV [RPL18A]	2.28 ± 0.12	1.53 ± 0.067	1.41 ± 0.16	1.46 ± 0.083
RKSVFAPLNFNPIIENN [SSN2]	2.65 ± 0.058	2.98 ± 0.073	2.75 ± 0.06	2.71 ± 0.069
RVGGGGTGRSGQGAFGN [RPL4A]	3.54 ± 0.13	3.52 ± 0.11	3.54 ± 0.066	3.34 ± 0.1
MNIPQRQFSNEEVNRCY [SNF2]	2.44 ± 0.1	3 ± 0.14	2.96 ± 0.26	3 ± 0.065
EEYLDANVFRLENQKDL [MTW1]	3.4 ± 0.081	3.38 ± 0.087	3.28 ± 0.057	3.3 ± 0.044
SGDRLTRASKVLEQLSG [RPL11A]	–	3.12 ± 0.13	2.43 ± 0.27	2.92 ± 0.13
QDVQRTCILHGPVAAQF [FAS1]	2.12 ± 0.078	2.54 ± 0.057	2.02 ± 0.08	2.44 ± 0.044
NNVSFNAKDIQIPVYDT [FAS1]	2.36 ± 0.041	2.49 ± 0.046	2.18 ± 0.048	2.64 ± 0.041
EDEVKVEGPKFTIDAKP [YLR335W/NUP2]	3.54 ± 0.15	3.52 ± 0.2	3.45 ± 0.071	–
EVQFGLFSPEEVRAISV [RPO21]	2.85 ± 0.076	3.04 ± 0.059	3 ± 0.045	3.12 ± 0.034
APIPIREDIDDPLAKVN [BRR2]	2.9 ± 0.075	2.66 ± 0.07	2.55 ± 0.09	2.22 ± 0.059
QTQEFFLSSFDDVLQTI [YJL039C/NUP192]	2.65 ± 0.046	2.27 ± 0.048	2.32 ± 0.047	2.51 ± 0.034
DNWNAPLIMATCGSKGS [RPO31]	2.57 ± 0.2	2.4 ± 0.11	–	2.43 ± 0.075
IQRGRILPTDGSAEFNV [RPB7]	2.8 ± 0.14	3.05 ± 0.086	3.03 ± 0.081	2.79 ± 0.075
TTKRLWSEITESMSYLP [MCD1]	3.01 ± 0.12	2.91 ± 0.095	2.99 ± 0.11	2.73 ± 0.069
KAAGLTAAYARTIGIAV [RPL13A]	1.56 ± 0.077	1.46 ± 0.059	1.22 ± 0.11	1.38 ± 0.089
GYYLSLGSGSLAAMAVL [PUP1]	–	1.98 ± 0.29	–	–
KTNKISILKRHSFAVLL [NUT1]	2.03 ± 0.11	2.4 ± 0.099	2.19 ± 0.12	1.99 ± 0.075
PINLHPSKLVITKLHLD [RPL26A]	1.74 ± 0.058	2.2 ± 0.045	1.9 ± 0.062	1.85 ± 0.042
